# Results taken from PMC6543031.
# Target: N-tagged HA-SadB protein (Pseudomonas fluorescens F113)
# Experiment: SEC; gel filtration of HA-SadB, in the presence or absence of c-di-GMP; data not shown
substance,measurement,value
N-tagged HA-SadB protein (natural protein),stoichiometry N,2
